For assay [1], the target named is T1, recombinant human IL-13 receptor alpha 2 (hIL-13-Rα2) (human, UniProt Q14627 27-343).
T1 construct: Recombinant soluble antigen coated on ELISA plates or used in Biacore; also called rec hIL-13Rα2; rhIL-13Rα2
T1 sequence (looked up): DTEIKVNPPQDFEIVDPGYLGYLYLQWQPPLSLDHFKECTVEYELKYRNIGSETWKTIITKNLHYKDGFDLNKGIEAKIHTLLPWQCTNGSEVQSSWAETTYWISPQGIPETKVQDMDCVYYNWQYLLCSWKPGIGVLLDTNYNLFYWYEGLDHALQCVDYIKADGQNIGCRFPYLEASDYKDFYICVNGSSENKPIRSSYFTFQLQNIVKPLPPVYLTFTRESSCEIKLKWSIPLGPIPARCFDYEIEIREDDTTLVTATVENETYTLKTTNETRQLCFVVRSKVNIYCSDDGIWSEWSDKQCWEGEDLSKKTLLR
Nature of the assay: direct ELISA on coated recombinant hIL-13-Rα2. The method, then:
Humanized hu08 binding to recombinant hIL-13-Rα2 was evaluated by a standard direct ELISA. Recombinant hIL-13-Rα2 was coated onto a 96-well plate. Serially diluted chimeric antibodies or humanized antibodies in combinations of heavy and light chains of versions 1.0 and 1.1 e.g. hu08 v1.0 HC/1.0 LC, hu08 v1.0 HC/v1.1 LC, hu08 v1.1 HC/v1.0 LC, and hu08 v1.1 HC/v1.1 LC, were added to the plate and incubated at room temperature for 1-2 hours. The binding was detected by HRP conjugated goat anti-human Ig Kappa.
A general note: ELISA stands for enzyme-linked immunosorbent assay.

For assay [2], the target named is T1, recombinant human IL-13 receptor alpha …. Nature of the assay: SPR Biacore T100, pH 7.4. The method, then: (§1) To assess the binding kinetics of the ch07 and ch08 antibodies, SPR (Surface Plasmon Resonance) experiments were conducted on a Biacore® T100 or T200 instrument using a Biacore® human Fab Capture Kit (GE Healthcare). All data was analyzed using the Biacore® T100 evaluation software version 2.0 with a 1:1 Langmuir binding model.
In general terms: Surface plasmon resonance follows binding to a sensor surface in real time, without labels.

Assay [3] deals with T2, cynomolgus monkey IL-13-Rα2 ECD/TM domain with C-terminal Flag tag, on transfected HEK293 cells (cynomolgus monkey, UniProt Q14627 27-363 (human entry)).
T2 construct: also called cyno-IL-13-Rα2; cyno IL-13Rα2; not shown: Flag tag at the C-terminal end
T2 chain: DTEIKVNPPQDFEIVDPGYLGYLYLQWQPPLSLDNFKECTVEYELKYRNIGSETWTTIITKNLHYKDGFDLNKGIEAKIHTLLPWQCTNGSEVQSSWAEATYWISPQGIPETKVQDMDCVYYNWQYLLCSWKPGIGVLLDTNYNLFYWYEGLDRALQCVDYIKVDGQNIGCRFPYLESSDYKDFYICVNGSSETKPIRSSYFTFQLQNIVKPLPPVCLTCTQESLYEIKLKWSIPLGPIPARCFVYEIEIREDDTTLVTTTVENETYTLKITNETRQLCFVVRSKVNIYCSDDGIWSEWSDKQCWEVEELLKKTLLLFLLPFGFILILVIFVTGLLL
The assay can be described thus: FACS on HEK293 cells transfected with cyno-IL-13-Rα2 (given as ED50). The method, then:
The ECD/TM domain of cyno IL-13-Rα2 fused with Flag tag at the C-terminal end was cloned into the pSMED2 expression vector. HEK293 suspension cells were transiently transfected with cyno-IL-13-Rα2 containing plasmid and pSMED2 vector (as a mock transfection). The cells were harvested 72 hours later and subjected to FACS analysis. 4 antibodies including ch07, ch08, hu08v1.0/1.0 and hu08v1.1/1.1 were tested. The binding on the cell surface cyno-IL-13-Rα2 was detected with R-Phycoerythrin-labeled goat anti-human or mouse IgG.

The target in assay [4] is T1, recombinant human IL-13 receptor alpha …. Nature of the assay: competition ELISA on coated recombinant hIL-13-Rα2, competitor biotin-ch08. Here is the method: A competition ELISA was performed to assess whether hu08 1.0 and hu08 v1.1 compete with ch08 for IL-13-Rα2 binding. Recombinant hIL-13-Rα2 was coated onto 96-well plates at 50 ul of […] in PBS overnight at 4° C. Plates were then blocked and washed following standard ELISA protocol. A 3-fold serially diluted ch08, hu08 1.0 and hu08 v1.1, and negative control ch07 (2× final concentration) were mixed with biotinylated ch08 (2×EC₅₀). 50 μl of the antibody and biotin-ch08 mixture were added to the plate and incubated for 1 hour at room temperature. The amount of biotin-ch08 bound was detected by HRP conjugated streptavidin.

Assay [5] shares this target. Nature of the assay: standard ELISA on hIL-13-Rα2 (given as ED50).
Assay [6] shares this target. Nature of the assay: competition ELISA on hIL-13-Rα2, competitor biotinylated ch08. Here is the method: The binding properties of the cysteine mutants to hIL-13-Rα2 were evaluated by a standard ELISA and a competition ELISA. […] This conclusion was confirmed by a competition ELISA with biotinylated ch08.
Assay [7] shares this target. The assay can be described thus: SPR Biacore T100, pH 6.0. Here is the method:
as §1

For assay [8] the target is unchanged. Nature of the assay: SPR Biacore T100, pH 7.4 (column head prints nM; kd/ka gives M); pH 7.4. Here is the method: as §1
For the next assay, the target named is T3, IL-13 (UniProt P35225 35-146, limits assumed).
T3 construct: also called IL-13 cytokine
T3 sequence (P35225 35-146 limits assumed): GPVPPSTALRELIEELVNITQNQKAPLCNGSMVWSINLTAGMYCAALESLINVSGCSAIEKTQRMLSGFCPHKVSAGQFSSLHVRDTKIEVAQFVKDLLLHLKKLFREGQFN
The assay can be described thus: competition ELISA: IL-13 captured on an anti-Flag coated plate, constant amounts of IL-13 and biotinylated IL-13Rα2-Fc (the competitor), detected with streptavidin-HRP. The method, then:
In order to assess whether ch07 and ch08 can neutralize IL-13 function, a competition ELISA was performed. An anti-Flag Ab was coated onto 96-well plates and incubated overnight at 4° C. Plates were then blocked and washed following standard ELISA protocol. […] 100 ul of the complex was added to the ELISA plate and incubated for 1 hour at room temperature. The amount of biotin-IL-13-Rα2 bound was detected by HRP conjugated streptavidin at 1:5000 for 1 hour.

B1: humanized antibody hu08 v1.0 HC/v1.0 LC (antibody, IgG1)
heavy: not shown
light: DIQMTQSPSSLSASVGDRVTITCKASQDVGTAVAWYQQKPGKAPKLLIYSASYRSTGVPSRFSGSGSGTDFTLTISSLQPEDFATYYCQHHYSAPWTFGGGTKVEIKRTVAAPSVFIFPPSDEQLKSGTASVVCLLNNFYPREAKVQWKVDNALQSGNSQESVTEQDSKDSTYSLSSTLTLSKADYEKHKVYACEVTHQGLSSPVTKSFNRGEC
notes: Humanized IgG1/kappa; also called hu08 v1.0/1.0; hu08v1.0/1.0
Usually EC50 stands for the concentration at which the effect is half-maximal. Usually koff stands for the rate constant with which the complex falls apart. By kon is commonly meant a measure of how fast the partners come together. In general, IC50 refers to the concentration at which inhibition is half-maximal. As a reminder, the Kd is the free concentration of one partner at which half of the binding sites on the other are occupied at equilibrium, for simple one-to-one binding. On to B1, for which the values for the concentration for a half-maximal effect (EC50) in [1], in assay [3] and in [5] were 0.175 nM, 1.96 nM and 0.11 nM, respectively. The koff worked out at 0.000246 s⁻¹ in assay [2] and 0.000234 s⁻¹ in assay [7]. The figures for the kon in assay [2] and in assay [7] were 97500 M⁻¹ s⁻¹ and 52900 M⁻¹ s⁻¹, respectively. For the same molecule, the IC50 in assay [4] was 2.12 nM; in assay [6], 2.01 nM. The Kd in assay [8] was 2.52 nM.

B2: naked IL-13Rα2 (positive control competitor) (receptor, not shown: a dimerising Fc or GST; large carriers; small tags and cut ends)
chain: T1 sequence (looked up)
Regarding B2, the “IC50 (read off the curve)” value in the assay with IL-13 is about 0.1 nM.
